The text below walks through data of publication PMC12527946.

The target in this test is VLDLR(28–797)Δ(751–779)-C-tag (VLDLR ectodomain), P98155-2. Put plainly: ELISA. Conditions: chain shown with the change, VLDLR-ed coated on microtiter plates, background binding to BSA subtracted; for Kd: parent: 79.6 nM; for response (Absorbance (450nm)): fitted binding curve read at Clu 1.0 µM, parent: est. 0.48, read off a plot. In general terms: In an ELISA, binding on a coated surface is turned into a signal by an enzyme label.

B1: wild-type human clusterin (WT Clu), P10909 K123Q; R127Q; R130Q; R138Q; R282Q; R286Q; R289Q (protein)
chain: MMKTLLLFVGLLLTWESGQVLGDQTVSDNELQEMSNQGSKYVNKEIQNAVNGVKQIKTLIEKTNEERKTLLSNLEEAKKKKEDALNETRESETKLKELPGVCNETMMALWEECKPCLKQTCMQFYAQVCQSGSGLVGQQLEEFLNQSSPFYFWMNGDRIDSLLENDRQQTHMLDVMQDHFSRASSIIDELFQDRFFTREPQDTYHYLPFSLPHRRPHFFFPKSRIVRSLMPFSPYEPLNFHAMFQPFLEMIHEAQQAMDIHFHSPAFQHPPTEFIREGDDDQTVCQEIQHNSTGCLRMKDQCDKCREILSVDCSTNNPSQAKLRRELDESLQVAERLTRKYNELLKSYQWKMLNTSSLLEQLNEQFNWVSRLANLTQGEDQYYLRVTTVASHTSDSDVPSGVTEVVVKLFDSDPITVTVPVEVSRKNPKFMETVAEKALQEYRKKHREE
Take B1: the Kd (as a rule, the constant that tells how readily two partners part at equilibrium) (Clu 0-2.0 µM) was 1180 nM.

B2: wild-type human clusterin (WT Clu), P10909 L229S; M230S; F232S; Y235S (protein)
chain: MMKTLLLFVGLLLTWESGQVLGDQTVSDNELQEMSNQGSKYVNKEIQNAVNGVKQIKTLIEKTNEERKTLLSNLEEAKKKKEDALNETRESETKLKELPGVCNETMMALWEECKPCLKQTCMKFYARVCRSGSGLVGRQLEEFLNQSSPFYFWMNGDRIDSLLENDRQQTHMLDVMQDHFSRASSIIDELFQDRFFTREPQDTYHYLPFSLPHRRPHFFFPKSRIVRSSSPSSPSEPLNFHAMFQPFLEMIHEAQQAMDIHFHSPAFQHPPTEFIREGDDDRTVCREIRHNSTGCLRMKDQCDKCREILSVDCSTNNPSQAKLRRELDESLQVAERLTRKYNELLKSYQWKMLNTSSLLEQLNEQFNWVSRLANLTQGEDQYYLRVTTVASHTSDSDVPSGVTEVVVKLFDSDPITVTVPVEVSRKNPKFMETVAEKALQEYRKKHREE
Consider B2, for which the Kd (Clu 0-2.0 µM) came to 989 nM.

B3: wild-type human clusterin (WT Clu), P10909 A108E; L109S; E112K; P115Q; K304A; E307H (protein)
chain: MMKTLLLFVGLLLTWESGQVLGDQTVSDNELQEMSNQGSKYVNKEIQNAVNGVKQIKTLIEKTNEERKTLLSNLEEAKKKKEDALNETRESETKLKELPGVCNETMMESWEKCKQCLKQTCMKFYARVCRSGSGLVGRQLEEFLNQSSPFYFWMNGDRIDSLLENDRQQTHMLDVMQDHFSRASSIIDELFQDRFFTREPQDTYHYLPFSLPHRRPHFFFPKSRIVRSLMPFSPYEPLNFHAMFQPFLEMIHEAQQAMDIHFHSPAFQHPPTEFIREGDDDRTVCREIRHNSTGCLRMKDQCDACRHILSVDCSTNNPSQAKLRRELDESLQVAERLTRKYNELLKSYQWKMLNTSSLLEQLNEQFNWVSRLANLTQGEDQYYLRVTTVASHTSDSDVPSGVTEVVVKLFDSDPITVTVPVEVSRKNPKFMETVAEKALQEYRKKHREE
Regarding B3, for the setting “Clu 0-1.0 µM”, the Kd worked out at 137 nM.

B4: wild-type human clusterin (WT Clu), P10909 Y125F; G132E; L135K; R138E; Q139A; E142S (protein)
chain: MMKTLLLFVGLLLTWESGQVLGDQTVSDNELQEMSNQGSKYVNKEIQNAVNGVKQIKTLIEKTNEERKTLLSNLEEAKKKKEDALNETRESETKLKELPGVCNETMMALWEECKPCLKQTCMKFFARVCRSESGKVGEALESFLNQSSPFYFWMNGDRIDSLLENDRQQTHMLDVMQDHFSRASSIIDELFQDRFFTREPQDTYHYLPFSLPHRRPHFFFPKSRIVRSLMPFSPYEPLNFHAMFQPFLEMIHEAQQAMDIHFHSPAFQHPPTEFIREGDDDRTVCREIRHNSTGCLRMKDQCDKCREILSVDCSTNNPSQAKLRRELDESLQVAERLTRKYNELLKSYQWKMLNTSSLLEQLNEQFNWVSRLANLTQGEDQYYLRVTTVASHTSDSDVPSGVTEVVVKLFDSDPITVTVPVEVSRKNPKFMETVAEKALQEYRKKHREE
Consider B4, for which the Kd (Clu 0-2.0 µM) was 1190 nM.

B5: wild-type human clusterin (WT Clu), P10909 Y204S; Y206S; L207S; F209S; L211S; F218S; F219S; F220S; L229S; M230S; F232S; Y235S (protein)
chain: MMKTLLLFVGLLLTWESGQVLGDQTVSDNELQEMSNQGSKYVNKEIQNAVNGVKQIKTLIEKTNEERKTLLSNLEEAKKKKEDALNETRESETKLKELPGVCNETMMALWEECKPCLKQTCMKFYARVCRSGSGLVGRQLEEFLNQSSPFYFWMNGDRIDSLLENDRQQTHMLDVMQDHFSRASSIIDELFQDRFFTREPQDTSHSSPSSSPHRRPHSSSPKSRIVRSSSPSSPSEPLNFHAMFQPFLEMIHEAQQAMDIHFHSPAFQHPPTEFIREGDDDRTVCREIRHNSTGCLRMKDQCDKCREILSVDCSTNNPSQAKLRRELDESLQVAERLTRKYNELLKSYQWKMLNTSSLLEQLNEQFNWVSRLANLTQGEDQYYLRVTTVASHTSDSDVPSGVTEVVVKLFDSDPITVTVPVEVSRKNPKFMETVAEKALQEYRKKHREE
For B5, the response (Absorbance (450nm)) is 0.055.

B6: wild-type human clusterin (WT Clu), P10909 V369K; A373T; T376K (protein)
chain: MMKTLLLFVGLLLTWESGQVLGDQTVSDNELQEMSNQGSKYVNKEIQNAVNGVKQIKTLIEKTNEERKTLLSNLEEAKKKKEDALNETRESETKLKELPGVCNETMMALWEECKPCLKQTCMKFYARVCRSGSGLVGRQLEEFLNQSSPFYFWMNGDRIDSLLENDRQQTHMLDVMQDHFSRASSIIDELFQDRFFTREPQDTYHYLPFSLPHRRPHFFFPKSRIVRSLMPFSPYEPLNFHAMFQPFLEMIHEAQQAMDIHFHSPAFQHPPTEFIREGDDDRTVCREIRHNSTGCLRMKDQCDKCREILSVDCSTNNPSQAKLRRELDESLQVAERLTRKYNELLKSYQWKMLNTSSLLEQLNEQFNWKSRLTNLKQGEDQYYLRVTTVASHTSDSDVPSGVTEVVVKLFDSDPITVTVPVEVSRKNPKFMETVAEKALQEYRKKHREE
For the molecule B6, the Kd (Clu 0-1.0 µM) is 109 nM.

B7: wild-type human clusterin (WT Clu), P10909 S161R (protein)
chain 1: DQTVSDNELQEMSNQGSKYVNKEIQNAVNGVKQIKTLIEKTNEERKTLLSNLEEAKKKKEDALNETRESETKLKELPGVCNETMMALWEECKPCLKQTCMKFYARVCRSGSGLVGRQLEEFLNQSSPFYFWMNGDRIDRLLENDRQQTHMLDVMQDHFSRASSIIDELFQDRFFTREPQDTYHYLPFSLPHRRPHFFFPKSRIVR
chain 2: SLMPFSPYEPLNFHAMFQPFLEMIHEAQQAMDIHFHSPAFQHPPTEFIREGDDDRTVCREIRHNSTGCLRMKDQCDKCREILSVDCSTNNPSQAKLRRELDESLQVAERLTRKYNELLKSYQWKMLNTSSLLEQLNEQFNWVSRLANLTQGEDQYYLRVTTVASHTSDSDVPSGVTEVVVKLFDSDPITVTVPVEVSRKNPKFMETVAEKALQEYRKKHREE
B7: where the note is “Clu 0-1.0 µM”, the Kd stood at 376 nM.

B8: wild-type human clusterin (WT Clu), P10909 Y204S; Y206S; L207S; F209S; L211S; F218S; F219S; F220S (protein)
chain: MMKTLLLFVGLLLTWESGQVLGDQTVSDNELQEMSNQGSKYVNKEIQNAVNGVKQIKTLIEKTNEERKTLLSNLEEAKKKKEDALNETRESETKLKELPGVCNETMMALWEECKPCLKQTCMKFYARVCRSGSGLVGRQLEEFLNQSSPFYFWMNGDRIDSLLENDRQQTHMLDVMQDHFSRASSIIDELFQDRFFTREPQDTSHSSPSSSPHRRPHSSSPKSRIVRSLMPFSPYEPLNFHAMFQPFLEMIHEAQQAMDIHFHSPAFQHPPTEFIREGDDDRTVCREIRHNSTGCLRMKDQCDKCREILSVDCSTNNPSQAKLRRELDESLQVAERLTRKYNELLKSYQWKMLNTSSLLEQLNEQFNWVSRLANLTQGEDQYYLRVTTVASHTSDSDVPSGVTEVVVKLFDSDPITVTVPVEVSRKNPKFMETVAEKALQEYRKKHREE
For the molecule B8, the response (Absorbance (450nm)) is 0.16.
